Columns and labels:
[1] = target: T1, recombinant cyno BCMA, in house material (cyno, UniProt A0A2K5UD97 4-52); test: ProteOn SPR run 2, antibody captured on Protein A, 25C
T1 construct: also called Cyno in house BCMA

[2] = target: T2, recombinant human BCMA, commercial (US Biological, B0410) (human, UniProt Q02223 5-54, limits assumed); test: Biacore T100, antibody captured on Protein A, 37C, experiment 1
T2 construct: also called commercial human BCMA; Human commercial BCMA
T2 chain (looked up): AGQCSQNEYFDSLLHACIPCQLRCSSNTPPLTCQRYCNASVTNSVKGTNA
Procedure: Protein A was immobilised on a CMS chip (GE Healthcare, Cat No: BR-1005-30) by primary amine coupling and this surface was then used to capture the antibody molecules. Recombinant human BCMA (US Biological, B0410) was used as analyte at 256 nM, 64 nM, 16 nM, 4 nM and 1 nM. Regeneration of the capture surface was carried out using 50 mM NaOH. All binding curves were double referenced with a buffer injection (i.e. 0 nM) the data was fitted to the using the 1:1 model inherent to T100 evaluation software. The run was carried out at 25° C. and 37° C. for experiment 1 and only 37° C. for experiment 2 using HBS-EP as the running buffer.

[3] = target: T3, recombinant human BCMA, in house material (human, UniProt Q02223 4-53, limits assumed); test: ProteOn SPR run 1, antibody captured on Protein A, 25C; Run 1 (Table 8)
T3 construct: also called Human in house BCMA; In house human BCMA
Procedure: (§1) The initial screen of CA8 chimeric and humanised variants was carried out on the ProteOn XPR36 (Biorad). The method was as follows; Protein A was immobilised on a GLC chip (Biorad, Cat No: 176-5011) by primary amine coupling, CA8 variants were then captured on this surface and recombinant human BCMA (in house or commercial US Biological, B0410) materials (run 2 only)) passed over at 256, 64, 16, 4, 1 nM with a 0 nM injection (i.e. buffer alone) used to double reference the binding curves, the buffer used is the HBS-EP buffer. 50 mM NaOH was used to regenerate the capture surface. The data was fitted to the 1:1 model using the analysis software inherent to the ProteOn XPR36. […] Both runs were carried out at 25° C.

[4] = target: T3, recombinant human BCMA, in house …; test: ProteOn SPR run 2, antibody captured on Protein A, 25C; Run 2 (Table 9)
Procedure: as §1

[5] = target: T4, recombinant human BCMA Fc 4-53 (human); test: ELISA, neutralisation of ligand binding to plate-coated BCMA Fc 4-53; competitor BAFF; competitor BAFF
T4 construct: also called Human BCMA CD33-hBCMA ECD (4-53) TEV-Fc; recombinant BCMA
Procedure: 96 well flat bottomed plates were coated overnight with 1 μg/mL solution of recombinant human BCMA Fc 4-53 in PBS. Following a wash step using 0.05% TWEEN20, plates were blocked with 2% Bovine Serum Albumin solution in PBS for 1 hour at room temperature. […] 40 μL of 2% BSA was added to the relevant control wells. […] Equivalent volume of 2% BSA was added to the relevant control wells. Plates were allowed to incubate for 2 hours at room temperature, after which they were washed as before. […] Following a wash step, 50 µL of a 1:4000 dilution of Streptavidin-HRP (Amersham RPN4401) was added to each well and incubated for 30 minutes at room temperature. The wash process was repeated again followed by the addition of […] of Tetramethylbenzidine substrate solution (T8665, Sigma) into each well. Plates were incubated for 20-25 minutes at room temperature, wrapped in foil. The reaction was stopped with the addition of […] of 1M H₂SO₄. Optical density was determined at 450 nm using Spectromax reader.

[6] = target: T5, cyno BCMA expressed on HEK293 cells (cyno, UniProt A0A2K5UD97 1-183); test: FMAT cell binding on HEK293 cells transfected with cyno BCMA, anti-human IgG FMAT Blue detection
T5 construct: whole, on cells; also called cyno BCMA HEK293
Procedure: Cryopreserved transfected human, cyno BCMA and mock transfected HEK293 cells were recovered from LN2 storage. […] The assay plates were left for a minimum of 90 minutes before the result was read on the ABI8200 (FMAT) plate reader.

B1: CA8 chimera antibody (human chimeric CA8) (antibody, V domains shown)
VH: EVQLQQSGAVLARPGASVKMSCKGSGYTFTNYWMHWVKQRPGQGLEWIGATYRGHSDTYYNQKFKGKAKLTAVTSTSTAYMELSSLTNEDSAVYYCTRGAIYNGYDVLDNWGQGTLVTVSS
VL: DIQLTQTTSSLSASLGDRVTISCSASQDISNYLNWYQQKPDGTVELVIYYTSNLHSGVPSRFSGSGSGTDYSLTIGYLEPEDVATYYCQQYRKLPWTFGGGSKLEIKR
notes: also called Chimera CA8; CA8 chimeric antibody
- Kd [1]: 2.06 nM
- Kd [2]: 0.051 nM
- Kd [3]: 0.519 nM
- Kd [4]: 0.412 nM
- EC50 [5]: 0.695 µg/mL
- EC50 (read off the curve) [6]: ~0.3 µg/mL
